Measured values reported in publication PMC5526462 (Biochemistry, 2017).
Read-outs that look alike come from different tables or passages of the source.

B1: MePqqD + MePqqA binary complex (complex, Methylobacterium extorquens)
chain: MEPTAFSGSDVPRLPRGVRLRFDEVRNKHVLLAPERTFDLDDNAVAVLKLVDGRNTVSQIAQILGQTYDADPAIIEADILPMLAGLAQKRVLER
peptide: KWAAPIVSEISVGMEVTSYESAEIDTFN
B2: Methylobacterium extorquens PqqD (MePqqD), truncation of the natural MePqqCD fusion (domain or fragment)
chain: B1 chain

Columns and labels:
[1] = biological target: PqqE (Methylorubrum extorquens) (UniProt B7KXC6); settings: cited from earlier work
[2] = biological target: PqqE (Methylorubrum extorquens) (UniProt B7KXC6); settings: cited from earlier work; remark: listed apart in the source
[3] = biological target: PqqD (Methylorubrum extorquens) (UniProt Q49148); settings: cited from earlier work
[4] = biological target: B2; test: NMR titration
[5] = biological target: T1, Methylobacterium extorquens PqqE (His6-MePqqE) (Methylobacterium extorquens, UniProt P71517 1-384); test: NMR titration
T1 sequence (looked up): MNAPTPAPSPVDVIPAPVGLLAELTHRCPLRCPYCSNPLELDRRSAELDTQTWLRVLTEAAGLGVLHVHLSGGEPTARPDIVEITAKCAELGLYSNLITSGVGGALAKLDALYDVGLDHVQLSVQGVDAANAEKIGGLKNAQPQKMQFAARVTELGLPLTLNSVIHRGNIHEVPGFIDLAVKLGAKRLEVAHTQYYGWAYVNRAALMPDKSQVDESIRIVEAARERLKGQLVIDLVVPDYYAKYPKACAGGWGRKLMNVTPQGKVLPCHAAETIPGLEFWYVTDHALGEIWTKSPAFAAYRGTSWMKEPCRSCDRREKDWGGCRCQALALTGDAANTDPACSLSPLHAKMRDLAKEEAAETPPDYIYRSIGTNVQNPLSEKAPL

Chain of PqqD (Methylorubrum extorquens) (Q49148 whole entry): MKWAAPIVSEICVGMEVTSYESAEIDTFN

## PqqD (from UniProt Q49148)
[1]
  Kd: 12 µM

## PqqD-PqqA complex (from UniProt Q49148)
[2]
  Kd: 5 µM

## PqqA (from UniProt Q49148)
[3]
  Kd: 0.2 µM

## KWAAPIVSEISVGMEVTSYESAEIDTFN [MePqqA precursor peptide (without the N-terminal methionine, cysteine 11 changed to serine)]
[4]
  binding result: binds

## B1
[5]
  binding result: binds

## B2
[5]
  binding result: binds
